Reference: article PMC10311653 (2023)

Target: hIL-1βQ15G (human)
Experiment: ELISA; apparent Kd

Sequence of hIL-1βQ15G (human) (chain, as listed by the source Q15G): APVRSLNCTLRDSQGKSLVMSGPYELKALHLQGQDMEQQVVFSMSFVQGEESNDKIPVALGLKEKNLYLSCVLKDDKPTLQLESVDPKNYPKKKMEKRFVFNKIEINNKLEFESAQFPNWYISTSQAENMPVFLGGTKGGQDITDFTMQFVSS

Kd: 27.3 nM
B1: Q15Kcr-G8-mFc (Fc fusion)
chain 1: EVQLQQSGAELVKPGASVKLSCTASDFNIKDTYIHWVKQRPEQGLEWIGRIDPADGNTKYDPKFQGKATITADTSSNTAYLQLSSLTSEDTAVYYCAIHYYGSFPYWGQGTLVTVSA
chain 2: DIVMTQAHKFMSTSVGDRVSITCQASQDVGTAVAWYQQKPGQSPKLLIYWASTRHTGVPDRFTGSGSGTDFTLTISNVQSEDLADYFCQQYSSYPYTFGGGTKLEIK
